From article PMC11949052

B1: C1-esterase inhibitor (C1-INH): N253A (protein)
parent chain: MASRLTLLTLLLLLLAGDRASSNPNATSSSSQDPESLQDRGEGKVATTVISKMLFVEPILEVSSLPTTNSTTNSATKITANTTDEPTTQPTTEPTTQPTIQPTQPTTQLPTDSPTQPTTGSFCPGPVTLCSDLESHSTEAVLGDALVDFSLKLYHAFSAMKKVETNMAFSPFSIASLLTQVLLGAGENTKTNLESILSYPKDFTCVHQALKGFTTKGVTSVSQIFHSPDLAIRDTFVNASRTLYSSSPRVLSNNSDANLELINTWVAKNTNNKISRLLDSLPSDTRLVLLNAIYLSAKWKTTFDPKKTRMEPFHFKNSVIKVPMMNSKKYPVAHFIDQTLKAKVGQLQLSHNLSLVILVPQNLKHRLEDMEQALSPSVFKAIMEKLEMSKFQPTLLTLPRIKVTTSQDMLSIMEKLEFFDFSYDLNLCGLTEDPDLQVSAMQHQTVLELTETGVEAAAASAISVARTLLVFEVQQPFLFVLWDQQHKFPVFMGRVYDPRA
B2: C1-esterase inhibitor (C1-INH): S255G (protein)
parent chain: MASRLTLLTLLLLLLAGDRASSNPNATSSSSQDPESLQDRGEGKVATTVISKMLFVEPILEVSSLPTTNSTTNSATKITANTTDEPTTQPTTEPTTQPTIQPTQPTTQLPTDSPTQPTTGSFCPGPVTLCSDLESHSTEAVLGDALVDFSLKLYHAFSAMKKVETNMAFSPFSIASLLTQVLLGAGENTKTNLESILSYPKDFTCVHQALKGFTTKGVTSVSQIFHSPDLAIRDTFVNASRTLYSSSPRVLSNNSDANLELINTWVAKNTNNKISRLLDSLPSDTRLVLLNAIYLSAKWKTTFDPKKTRMEPFHFKNSVIKVPMMNSKKYPVAHFIDQTLKAKVGQLQLSHNLSLVILVPQNLKHRLEDMEQALSPSVFKAIMEKLEMSKFQPTLLTLPRIKVTTSQDMLSIMEKLEFFDFSYDLNLCGLTEDPDLQVSAMQHQTVLELTETGVEAAAASAISVARTLLVFEVQQPFLFVLWDQQHKFPVFMGRVYDPRA
B3: C1-esterase inhibitor (C1-INH): S354G (protein)
parent chain: MASRLTLLTLLLLLLAGDRASSNPNATSSSSQDPESLQDRGEGKVATTVISKMLFVEPILEVSSLPTTNSTTNSATKITANTTDEPTTQPTTEPTTQPTIQPTQPTTQLPTDSPTQPTTGSFCPGPVTLCSDLESHSTEAVLGDALVDFSLKLYHAFSAMKKVETNMAFSPFSIASLLTQVLLGAGENTKTNLESILSYPKDFTCVHQALKGFTTKGVTSVSQIFHSPDLAIRDTFVNASRTLYSSSPRVLSNNSDANLELINTWVAKNTNNKISRLLDSLPSDTRLVLLNAIYLSAKWKTTFDPKKTRMEPFHFKNSVIKVPMMNSKKYPVAHFIDQTLKAKVGQLQLSHNLSLVILVPQNLKHRLEDMEQALSPSVFKAIMEKLEMSKFQPTLLTLPRIKVTTSQDMLSIMEKLEFFDFSYDLNLCGLTEDPDLQVSAMQHQTVLELTETGVEAAAASAISVARTLLVFEVQQPFLFVLWDQQHKFPVFMGRVYDPRA
B4: C1-esterase inhibitor (C1-INH): N238A (protein)
parent chain: MASRLTLLTLLLLLLAGDRASSNPNATSSSSQDPESLQDRGEGKVATTVISKMLFVEPILEVSSLPTTNSTTNSATKITANTTDEPTTQPTTEPTTQPTIQPTQPTTQLPTDSPTQPTTGSFCPGPVTLCSDLESHSTEAVLGDALVDFSLKLYHAFSAMKKVETNMAFSPFSIASLLTQVLLGAGENTKTNLESILSYPKDFTCVHQALKGFTTKGVTSVSQIFHSPDLAIRDTFVNASRTLYSSSPRVLSNNSDANLELINTWVAKNTNNKISRLLDSLPSDTRLVLLNAIYLSAKWKTTFDPKKTRMEPFHFKNSVIKVPMMNSKKYPVAHFIDQTLKAKVGQLQLSHNLSLVILVPQNLKHRLEDMEQALSPSVFKAIMEKLEMSKFQPTLLTLPRIKVTTSQDMLSIMEKLEFFDFSYDLNLCGLTEDPDLQVSAMQHQTVLELTETGVEAAAASAISVARTLLVFEVQQPFLFVLWDQQHKFPVFMGRVYDPRA
B5: C1-esterase inhibitor (C1-INH): N352S (protein)
parent chain: MASRLTLLTLLLLLLAGDRASSNPNATSSSSQDPESLQDRGEGKVATTVISKMLFVEPILEVSSLPTTNSTTNSATKITANTTDEPTTQPTTEPTTQPTIQPTQPTTQLPTDSPTQPTTGSFCPGPVTLCSDLESHSTEAVLGDALVDFSLKLYHAFSAMKKVETNMAFSPFSIASLLTQVLLGAGENTKTNLESILSYPKDFTCVHQALKGFTTKGVTSVSQIFHSPDLAIRDTFVNASRTLYSSSPRVLSNNSDANLELINTWVAKNTNNKISRLLDSLPSDTRLVLLNAIYLSAKWKTTFDPKKTRMEPFHFKNSVIKVPMMNSKKYPVAHFIDQTLKAKVGQLQLSHNLSLVILVPQNLKHRLEDMEQALSPSVFKAIMEKLEMSKFQPTLLTLPRIKVTTSQDMLSIMEKLEFFDFSYDLNLCGLTEDPDLQVSAMQHQTVLELTETGVEAAAASAISVARTLLVFEVQQPFLFVLWDQQHKFPVFMGRVYDPRA
B6: C1-esterase inhibitor (C1-INH): N352A (protein)
parent chain: MASRLTLLTLLLLLLAGDRASSNPNATSSSSQDPESLQDRGEGKVATTVISKMLFVEPILEVSSLPTTNSTTNSATKITANTTDEPTTQPTTEPTTQPTIQPTQPTTQLPTDSPTQPTTGSFCPGPVTLCSDLESHSTEAVLGDALVDFSLKLYHAFSAMKKVETNMAFSPFSIASLLTQVLLGAGENTKTNLESILSYPKDFTCVHQALKGFTTKGVTSVSQIFHSPDLAIRDTFVNASRTLYSSSPRVLSNNSDANLELINTWVAKNTNNKISRLLDSLPSDTRLVLLNAIYLSAKWKTTFDPKKTRMEPFHFKNSVIKVPMMNSKKYPVAHFIDQTLKAKVGQLQLSHNLSLVILVPQNLKHRLEDMEQALSPSVFKAIMEKLEMSKFQPTLLTLPRIKVTTSQDMLSIMEKLEFFDFSYDLNLCGLTEDPDLQVSAMQHQTVLELTETGVEAAAASAISVARTLLVFEVQQPFLFVLWDQQHKFPVFMGRVYDPRA

Test: ELISA and Western blot of HEK293T supernatants
Conditions: glycan lost; control: wild type

expression_or_secretion, percent_of_wt, no change:
B1
B2
B3
B4
B5
B6
